We go through one molecule from paper PMC12766925, “Functional assembly of the Qc-SNARE with Sec18 and Sec17 on membranes” (Molecular Biology of the Cell, 2025).

Assay [1] deals with T1, complex of RQaQb on proteoliposomes (yeast (Saccharomyces Genome Database …, UniProt Q12255 1-253; Q12241 1-283; Q04338 1-217).
T1 construct: Nyv1 (R SNARE), yeast, YLR093C; as m5; Vam3 (Qa SNARE), yeast, YOR106W; as m6; Vti1 (Qb SNARE), yeast, YMR197C; as m7; also called R, Qa, and Qb; source: purified SNAREs (Mima et al., 2008) reconstituted together into VML proteoliposomes; copies: + +
Put plainly: liposome floatation (density gradient) with immunoblot; VML proteoliposomes with no SNAREs, single or several anchored SNAREs (1:2000 to lipid), 0.5 mM lipid, 1 µM added Sec17, Rb150, 0.04% defatted BSA, 1 mM MgCl2, 27°C 1 h; floated through Histodenz; bound Sec17 by Western blot. The conditions noted are these: both partners purified.

A further assay addresses T2, His6-Sec18 (yeast (Saccharomyces Genome Database …, UniProt P18759 1-758)).
T2 construct: Sec18, yeast, YBR080C; construct from Haas and Wickner, 1996; also called Sec18/NSF; source: E. coli XL1 Blue/pQE9-His6-Sec18, purified (Ni-NTA, Superdex 200)
T2 sequence (looked up): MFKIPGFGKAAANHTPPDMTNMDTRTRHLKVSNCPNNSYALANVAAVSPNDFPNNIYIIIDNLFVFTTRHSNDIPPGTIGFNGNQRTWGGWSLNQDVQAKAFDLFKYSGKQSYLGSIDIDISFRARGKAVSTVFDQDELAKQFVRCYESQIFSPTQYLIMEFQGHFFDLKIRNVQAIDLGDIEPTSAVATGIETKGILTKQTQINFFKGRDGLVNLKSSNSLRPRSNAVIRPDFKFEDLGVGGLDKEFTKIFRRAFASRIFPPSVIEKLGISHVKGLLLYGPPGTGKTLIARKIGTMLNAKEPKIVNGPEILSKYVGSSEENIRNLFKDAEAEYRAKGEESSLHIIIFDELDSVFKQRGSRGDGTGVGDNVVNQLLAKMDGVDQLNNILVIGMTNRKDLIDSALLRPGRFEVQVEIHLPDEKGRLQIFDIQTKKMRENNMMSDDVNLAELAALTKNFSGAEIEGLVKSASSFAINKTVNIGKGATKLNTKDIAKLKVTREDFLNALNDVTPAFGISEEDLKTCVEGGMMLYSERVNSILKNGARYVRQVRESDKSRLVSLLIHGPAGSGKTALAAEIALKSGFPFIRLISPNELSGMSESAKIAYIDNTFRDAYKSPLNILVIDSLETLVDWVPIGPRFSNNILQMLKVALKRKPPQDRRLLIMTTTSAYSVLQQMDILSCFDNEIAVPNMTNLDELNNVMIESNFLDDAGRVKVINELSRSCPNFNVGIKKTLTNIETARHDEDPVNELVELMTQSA
Put plainly: liposome floatation (density gradient) with immunoblot; protein-free VML liposomes, 1 mM Mg:ATPyS, where indicated 1 µM Sec17, 250 nM Sec18, 2 µM Qc; Rb150, 27°C 1 h; floated through Histodenz; bound proteins by Western blot. Conditions: both partners purified.

T1 sequence (Q12255 whole entry, chain 1 of 3): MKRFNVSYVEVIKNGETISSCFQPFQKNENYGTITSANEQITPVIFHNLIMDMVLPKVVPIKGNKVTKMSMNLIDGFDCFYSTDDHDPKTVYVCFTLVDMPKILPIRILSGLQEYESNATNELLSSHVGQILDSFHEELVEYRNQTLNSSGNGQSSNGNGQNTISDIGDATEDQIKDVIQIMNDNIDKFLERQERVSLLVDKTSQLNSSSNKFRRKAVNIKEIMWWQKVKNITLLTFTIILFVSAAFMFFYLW
T1 sequence (Q12241 whole entry, chain 2 of 3): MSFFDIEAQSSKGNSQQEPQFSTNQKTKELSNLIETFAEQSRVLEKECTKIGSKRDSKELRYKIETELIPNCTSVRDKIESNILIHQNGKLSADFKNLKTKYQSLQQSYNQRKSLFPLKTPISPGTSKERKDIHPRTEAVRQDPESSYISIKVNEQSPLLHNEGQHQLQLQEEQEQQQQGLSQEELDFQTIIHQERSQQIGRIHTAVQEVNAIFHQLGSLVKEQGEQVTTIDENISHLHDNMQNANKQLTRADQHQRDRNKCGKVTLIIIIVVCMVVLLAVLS
T1 sequence (Q04338 whole entry, chain 3 of 3): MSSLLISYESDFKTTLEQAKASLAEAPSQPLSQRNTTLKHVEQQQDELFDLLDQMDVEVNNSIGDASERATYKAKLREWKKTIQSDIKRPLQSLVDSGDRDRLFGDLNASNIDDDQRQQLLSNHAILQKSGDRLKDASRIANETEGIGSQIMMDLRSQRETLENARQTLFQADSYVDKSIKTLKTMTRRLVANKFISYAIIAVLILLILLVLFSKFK

B1: Sec17 (natural protein, UniProt P32602 1-292, looked up)
chain: MSDPVELLKRAEKKGVPSSGFMKLFSGSDSYKFEEAADLCVQAATIYRLRKELNLAGDSFLKAADYQKKAGNEDEAGNTYVEAYKCFKSGGNSVNAVDSLENAIQIFTHRGQFRRGANFKFELGEILENDLHDYAKAIDCYELAGEWYAQDQSVALSNKCFIKCADLKALDGQYIEASDIYSKLIKSSMGNRLSQWSLKDYFLKKGLCQLAATDAVAAARTLQEGQSEDPNFADSRESNFLKSLIDAVNEGDSEQLSEHCKEFDNFMRLDKWKITILNKIKESIQQQEDDLL
notes: Sec17, yeast, YBL050W; Plasmid from Schwartz and Merz, 2009; also called Sec17/SNAP; wild-type Sec17; source: E. coli Rosetta2(DE3), purified (chitin resin, DTT cleavage, dialysed into Rb150)
As for B1, the binding result (in assay [1]; with His6-Sec18) was “binds” in each case.
